Results reported in article PMC3096012.
Numbering of substitutions follows the chain as printed. Numbers in names are those of the source.

Tests used:
Assay in all cases: SEC
[1] = biological target: GltPh-A V355C-S279C, unlabeled (Pyrococcus Horikoshi), O59010
[2] = biological target: GltPh-A A353C-L130C, unlabeled (Pyrococcus Horikoshi), O59010
[3] = biological target: GltPh-A V355C-P129C, unlabeled (Pyrococcus Horikoshi), O59010

B1: GltPh-A V355C-S279C, unlabeled, O59010 1-425 (natural protein)
chain: MGLYRKYIEYPVLQKILIGLILGAIVGLILGHYGYAHAVHTYVKPFGDLFVRLLKMLVMPIVFASLVVGAASISPARLGRVGVKIVVYYLLTSAFAVTLGIIMARLFNPGAGIHLAVGGQQFQPHQAPPLVHILLDIVPTNPFGALANGQVLPTIFFAIILGIAITYLMNSENEKVRKSAETLLDAINGLAEAMYKIVNGVMQYAPIGVFALIAYVMAEQGVHVVGELAKVTAAVYVGLTLQILLVYFVLLKIYGIDPISFIKHAKDAMLTAFVTRSSCGTLPVTMRVAKEMGISEGIYSFTLPLGATINMDGTALYQGVATFFIANALGSHLTVGQQLTIVLTAVLASIGTAGCPGAGAIMLAMVLHSVGLPLTDPNVAAAYAMILGIDAILDMGRTMVNVTGDLTGTAIVAKTEGTLVPR
modifications: not checked
Binder B1 has a stoichiometry N [1] of 3.

B2: GltPh-A A353C-L130C, unlabeled, O59010 1-425 (natural protein)
chain: B1 chain with L130C, C279S, A353C, C355V
modifications: not checked
For B2, the stoichiometry N [2] was 3.

B3: GltPh-A V355C-P129C, unlabeled, O59010 1-425 (natural protein)
chain: B1 chain with P129C, C279S
modifications: not checked
For B3, the stoichiometry N [3] was 3.
